Assay results: patent publication US20250312467A1

Target: Her2 (UniProt P04626)
Assay: cell-based or functional assay

antibody-payload conjugate (ADC, trastuzumab-DM1 conjugate)
IC50, in vitro cytotoxicity on BT474 cells: 0.0296 µg/mL
IC50, in vitro cytotoxicity on NCI-N87 cells: 0.0821 µg/mL
